Like-named read-outs stand apart in the source and are kept apart here.
B1: T2.01 (anti-hu CD20/hu IL-12, hu IgG1) (bispecific antibody)
heavy: not shown
light: QIVLSQSPAILSASPGEKVTMTCRASSSVSYIHWFQQKPGSSPKPWIYATSNLASGVPVRFSGSGSGTSYSLTISRVEAEDAATYYCQQWTSNPPTFGGGTKLEIKRTVAAPSVFIFPPSDEQLKSGTASVVCLLNNFYPREAKVQWKVDNALQSGNSQESVTEQDSKDSTYSLSSTLTLSKADYEKHKVYACEVTHQGLSSPVTKSFNRGEC
chain: not shown
B2: T2.06 (anti-hu CD20/hu IL-12, hu IgG1 (2 + 1, HC scFv)) (bispecific antibody)
heavy: not shown
light: B1 light
chain: not shown
B3: T2.11 (anti-hu CD20/anti-hu CD20-hu IL-12 mut2, hu IgG1 (2 + 1)) (antibody)
heavy 1: not shown
heavy 2: not shown
light: B1 light
B4: T2.10 (anti-hu CD20/anti-hu CD20-hu IL-12, hu IgG1 (2 + 1)) (antibody)
heavy 1: not shown
heavy 2: not shown
light: B1 light
B5: T2.02 (anti-hu CD20/hu IL-12 mut1, hu IgG1) (bispecific antibody)
heavy: not shown
light: B1 light
chain: not shown
B6: T2.07 (anti-hu CD20/hu IL-12 mut2, hu IgG1 (2 + 1, HC scFv)) (bispecific antibody)
heavy: not shown
light: B1 light
chain: not shown
B7: T2.09 (anti-hu CD20/hu IL-12 mut2, hu IgG1 (2 + 1, LC scFv)) (bispecific antibody)
heavy: not shown
light: QIVLSQSPAILSASPGEKVTMTCRASSSVSYIHWFQQKPGSSPKPWIYATSNLASGVPVRFSGSGSGTSYSLTISRVEAEDAATYYCQQWTSNPPTFGGGTKLEIKRTVAAPSVFIFPPSDEQLKSGTASVVCLLNNFYPREAKVQWKVDNALQSGNSQESVTEQDSKDSTYSLSSTLTLSKADYEKHKVYACEVTHQGLSSPVTKSFNRGECGGGGSGGGGSGGGGSQVQLQQPGAELVKPGASVKMSCKASGYTFTSYNMHWVKQTPGRGLEWIGAIYPGNGDTSYNQKFKGKATLTADKSSSTAYMQLSSLTSEDSAVYYCARSTYYGGDWYFNVWGAGTTVTVSAGGGGSGGGGSGGGGSGGGGSQIVLSQSPAILSASPGEKVTMTCRASSSVSYIHWFQQKPGSSPKPWIYATSNLASGVPVRFSGSGSGTSYSLTISRVEAEDAATYYCQQWTSNPPTFGGGTKLEIK
chain: not shown
B8: T2.08 (anti-hu CD20/hu IL-12, hu IgG1 (2 + 1, LC scFv)) (bispecific antibody)
heavy: not shown
light: B7 light
chain: not shown
B9: Rituximab (anti-hu CD20 monoclonal antibody) (antibody, V domains shown)
VH: QVQLQQPGAELVKPGASVKMSCKASGYTFTSYNMHWVKQTPGRGLEWIGAIYPGNGDTSYNQKFKGKATLTADKSSSTAYMQLSSLTSEDSAVYYCARSTYYGGDWYFNVWGAGTTVTVSA
VL: QIVLSQSPAILSASPGEKVTMTCRASSSVSYIHWFQQKPGSSPKPWIYATSNLASGVPVRFSGSGSGTSYSLTISRVEAEDAATYYCQQWTSNPPTFGGGTKLEIKR
B10: T2.04 (anti-hu CD20/hu IL-12, hu IgG1 (2 + 1)) (bispecific antibody)
heavy: not shown
light: QIVLSQSPAILSASPGEKVTMTCRASSSVSYIHWFQQKPGSSPKPWIYATSNLASGVPVRFSGSGSGTSYSLTISRVEAEDAATYYCQQWTSNPPTFGGGTKLEIKGGGGSGGGGSGGGGSQIVLSQSPAILSASPGEKVTMTCRASSSVSYIHWFQQKPGSSPKPWIYATSNLASGVPVRFSGSGSGTSYSLTISRVEAEDAATYYCQQWTSNPPTFGGGTKLEIKRTVAAPSVFIFPPSDEQLKSGTASVVCLLNNFYPREAKVQWKVDNALQSGNSQESVTEQDSKDSTYSLSSTLTLSKADYEKHKVYACEVTHQGLSSPVTKSFNRGEC
chain: not shown
B11: T2.05 (anti-hu CD20/hu IL-12 mut2, hu IgG1 (2 + 1)) (bispecific antibody)
heavy: not shown
light: B10 light
chain: not shown

Legend:
recombinant human CD20 [1] = target: T1, recombinant human CD20 (human, UniProt P11836 1-297); assay: SPR
T1 chain: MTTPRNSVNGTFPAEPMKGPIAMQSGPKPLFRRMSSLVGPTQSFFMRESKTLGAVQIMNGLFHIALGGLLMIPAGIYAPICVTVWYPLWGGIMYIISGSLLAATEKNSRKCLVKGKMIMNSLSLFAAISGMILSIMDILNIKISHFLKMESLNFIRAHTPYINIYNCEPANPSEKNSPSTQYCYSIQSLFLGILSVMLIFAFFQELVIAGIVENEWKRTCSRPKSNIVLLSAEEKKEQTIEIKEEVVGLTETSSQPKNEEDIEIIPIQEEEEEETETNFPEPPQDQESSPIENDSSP

[2] = target: T2, IL-12 receptor beta 1-biotin (IL-12Rβ1-Biotin; Acrobiosystems) (human, UniProt P42701 24-545, biotin (site not stated)); assay: ELISA
recombinant human CD20 [3] = target: T1, recombinant human CD20; assay: SPR
recombinant human CD20 [4] = target: T1, recombinant human CD20; assay: SPR
[5] = target: T2, IL-12 receptor beta 1-biotin …; assay: ELISA; control, flat curve

Binder	Kd (recombinant human CD20 [3])	Kd (recombinant human CD20 [4])	further results
B1	–	–	Kd (recombinant human CD20 [1]): 5.84 nM; EC50 [2]: 16.2 nM
B2	11.5 nM	–	–
B3	–	1390 nM	–
B4	–	16.6 nM	–
B5	–	–	Kd (recombinant human CD20 [1]): 7.2 nM; EC50 [2]: 17.6 nM
B6	2.84 nM	–	–
B7	–	3.67 nM	–
B8	–	2.08 nM	–
B9	–	–	EC50 [5]: 25.1 nM
B10	7.58 nM	–	–
B11	2.88 nM	–	–

Source: patent US20230295327A1 (published 2023)
